Reference: paper PMC4066673 (Biochemistry, 2012)

Biological target: the molecule itself
Assay: SEC-MALS

B1: His6-tagged (Δ1-39)hTHEM4 (enzyme, human, UniProt Q5T1C6 40-240, looked up)
chain: EVILKDCSVPNPSWNKDLRLLFDQFMKKCEDGSWKRLPSYKRTPTEWIQDFKTHFLDPKLMKEEQMSQAQLFTRSFDDGLGFEYVMFYNDIEKRMVCLFQGGPYLEGPPGFIHGGAIATMIDATVGMCAMMAGGIVMTANLNINYKRPIPLCSVVMINSQLDKVEGRKFFVSCNVQSVDEKTLYSEATSLFIKLNPAKSLT
  stoichiometry N: 2
